Results: patent US20180021429A1 (PHARMA FOODS INTERNATIONAL, published 2018)
Like-named read-outs stand apart in the source and are kept apart here.

T1: human FSTL1 (construct not stated) (human, UniProt Q12841 21-308)
T1 construct: also called human FSTL1 antigen; FSTL1 (R&D Systems, Inc. Cat#1694-FN-050)
T1 sequence: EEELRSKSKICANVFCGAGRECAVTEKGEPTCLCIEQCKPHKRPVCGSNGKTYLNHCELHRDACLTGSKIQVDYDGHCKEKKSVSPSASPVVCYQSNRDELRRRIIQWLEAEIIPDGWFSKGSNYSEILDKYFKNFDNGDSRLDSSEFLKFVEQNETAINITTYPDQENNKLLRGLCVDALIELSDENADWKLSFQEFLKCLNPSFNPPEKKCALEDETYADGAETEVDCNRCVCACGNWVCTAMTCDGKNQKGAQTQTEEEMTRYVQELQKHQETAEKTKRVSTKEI

T2: His-tagged mouse FSTL1 (amino acid sequence of mouse FSTL1 used in Examples, SEQ ID NO: 72) (mouse, UniProt Q62356 19-306)
T2 sequence: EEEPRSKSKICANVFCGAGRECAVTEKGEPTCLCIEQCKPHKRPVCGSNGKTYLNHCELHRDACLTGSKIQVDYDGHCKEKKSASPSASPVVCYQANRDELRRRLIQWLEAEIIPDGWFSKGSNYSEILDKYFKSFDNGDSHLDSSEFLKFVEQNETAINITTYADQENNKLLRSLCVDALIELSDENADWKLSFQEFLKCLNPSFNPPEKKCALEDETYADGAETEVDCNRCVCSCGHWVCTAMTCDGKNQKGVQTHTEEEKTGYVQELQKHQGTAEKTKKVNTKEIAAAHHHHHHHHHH


Columns and labels:
[1] = biological target: T1, human FSTL1 (construct not stated); test: SPR (Biacore T-200), captured antibody, human FSTL1 10 µg/ml; as to Dissociation amount (RU): time not given here
Procedure: (§1) The mouse chimeric antibodies were immobilized onto Sensor Chip CM5 (GE Healthcare Japan Corp., BR-1005-30) using Mouse Antibody Capture Kit (GE Healthcare Japan Corp., BR-1008-38), and their affinity for human FSTL1 was calculated using Biacore T-200 (GE Healthcare Japan Corp.).
(§2) First, the exhaustive activity comparison of the obtained antibodies was conducted with the human FSTL1 concentration fixed to 10 μg/ml (Table 33-1, FIG. 28).

[2] = biological target: T1, human FSTL1 (construct not stated); test: as above; remark: listed apart in the source
Procedure: as §1, §2

[3] = biological target: T1, human FSTL1 (construct not stated); test: as above; remark: listed apart in the source
Procedure: as §1

[4] = biological target: T1, human FSTL1 (construct not stated); test: as above; remark: listed apart in the source
Procedure: as §1, §2

[5] = biological target: T2, His-tagged mouse FSTL1 (amino acid …); test: ELISA, mouse FSTL1 coated (FIG. 3B)
[6] = biological target: T1, human FSTL1 (construct not stated); test: SPR (Biacore T-200), antibody on Human Antibody Capture Kit, human FSTL1 0 to 20 µg/ml
Procedure: (§3) Nine IgG1-type humanized antibodies of #6-55 were immobilized onto Sensor Chip CM5 (GE Healthcare Japan Corp., BR-1005-30) using Human Antibody Capture Kit (GE Healthcare Japan Corp., BR-1008-38), and their affinity for human FSTL1 was calculated using Biacore T-200 (GE Healthcare Japan Corp.). […] Among the 9 IgG1-type humanized antibodies of #6-55, a clone composed of a combination “H(2)-L(1)” having a […] KD value was selected as a lead antibody.

[7] = biological target: T1, human FSTL1 (construct not stated); test: as above; remark: listed apart in the source
Procedure: as §3

Binder	Binding amount (RU) [1] [RU]	Dissociation amount (RU) [1] [RU]	Binding amount (RU) [2] [RU]	Dissociation amount (RU) [2] [RU]	Binding amount (RU) [3] [RU]	Dissociation amount (RU) [3] [RU]	Binding amount (RU) [4] [RU]	Dissociation amount (RU) [4] [RU]	binding result [5]	Kd [6] [nM]	Kd [7] [nM]
anti-FSTL1 antibody clone #8-7 (chicken-mouse chimeric antibody) (antibody, mouse IgG1, kappa, V domains shown) VH: AVTLDESGGGLQTPGGGLSLVCKGSGFTFSSFNMFWVRQAPGKGLEWVAGIGKDGVPKYGAAVDGRATISKDNGQSTLRLQLNNLRAEDTGTYFCAKAAGGCSYDWCGIYAGDIDTWGHGTEVIVSS VL: ASTQPSSVSANPGEAVKITCSGGSGSYYGWYQQKSPGSAPVTVIYNNNQRPSDIPSRFSGSKSGSTATLTITGVQAEDEAVYFCGGYDSSTGHGGIFGAGTTLTVLG	12.8	11.8	12.8	11.8	12.8	11.8	12.8	11.8	–	–	–
anti-FSTL1 antibody clone #5-3 (chicken-mouse chimeric antibody) (antibody, mouse IgG1, kappa, V domains shown) VH: AVTLDESGGGLQTPGGALSLVCKGSGFSFSSFNMFWVRQAPGKGLEWVAGIGKDGVPKYGAAVDGRATISKDNGQSTMRLQLNNLRAEDTGTYFCAKAAGGCSYDWCGIYAGDIDTWGHGTEVIVSS VL: ASTQPSSVSANPGETVKITCSGGSGYYYGWYQQKSPGSVPVTVIYNNNNRPSDIPSRFSGSKSGSTGTLTITGVRAEDEAVYYCGGYDNSGTGIFGAGTTLTVLG	11	8.8	11	8.8	11	8.8	11	8.8	–	–	–
anti-FSTL1 antibody clone #5-2 (chicken-mouse chimeric antibody) (antibody, mouse IgG1, kappa, V domains shown) VH: AVTLDESGGGLQTPGGGLSLVCKGSGFTFSSFNMFWVRQAPGKGLEWVAGVGKDGGTGYGAAVDGRATISKDNGQSTLRLQLNNLRAEDTGTYYCAKAAGGCSYGWCGSYVGDIDAWGHGTEVIVSS VL: ASTQPSSVSANPGEAVKITCSGGSGSYYGWYQQKSPGSAPVTVIYNNNQRPSDIPSRFSGSKSGSTATLTITGVQAEDEAVYFCGGYDSSTGHGGIFGAGTTLTVLG	9.2	7.1	9.2	7.1	9.2	7.1	9.2	7.1	–	–	–
anti-FSTL1 antibody clone #8-8 (chicken-mouse chimeric antibody) (antibody, mouse IgG1, kappa, V domains shown) VH: AVTLDESGGGLQTPGGALSLVCKGSGFTFSSFNMFWVRQAPGKGLEWVAGIGKDGVPKYGAAVDGRATISKDNGQSTMRLQLNNLRAEDTGTYYCAKAAGGCSYGWCGAYTGDIDTWGHGTEVIVSS VL: ASTQPSSVSANPGEAVKITCSGGSGSYYGWYQQKSPGSAPVTVIYNNNQRPSDIPSRFSGSKSGSTATLTITGVQVEDEAVYFCGGYDSSTGHGGIFGAGTTLTVLG	8	4.7	8	4.7	8	4.7	8	4.7	–	–	–
anti-FSTL1 antibody clone #5-43 (chicken-mouse chimeric antibody) (antibody, mouse IgG1, kappa, V domains shown) VH: AVTLDESGGGLQTPGGGLSLVCKGSGFTFSSFNMFWVRQAPGKGLEWVAGIGKDGGTGYGAAVDGRATISKDSGQSTLRLQLNNLRAEDTGTYYCAKAAGGCSYDWCGAYTGDIDTWGHGTEVIVSS VL: ASTQPSSVSANPGEAVKITCSGGSGSYYGWYQQKSPGSAPVTVIYNNNQRPSDIPSRFSGSKSGSTATLTITGVQAEDEAVYFCGGYDSSTGHGGIFGAGTTLTVLG	7	3.1	7	3.1	7	3.1	7	3.1	–	–	–
anti-FSTL1 antibody clone #33 (chicken-mouse chimeric antibody) (antibody, mouse IgG1, kappa, V domains shown) VH: AVTLDESGGGLQTPGGGLSLVCKASGFTFSSFNMNWVRQAPGKGLEYVAEISGTGSSTYYGSAVKGRATISRDNGQSTVRLQLNNLRAEDTATYFCARGDGAYSIDAWGHGTEVIVSS VL: ASTQPSSVSANPGETVEITCSGDSSYYGWFQQKSPGSAPVTVIYDNTNRPSDIPSRFSGSKSGSTATLTITGVRAEDEAVYYCGGYDSSTYDGIFGAGTTLTVLG	10.9	4.1	10.9	4.1	10.9	4.1	10.9	4.1	binds	–	–
humanized #6-55 antibody H(3)-L(1) (IgG1 type) (antibody, V domains shown, Human IgG1 constant region; expressed in HEK293; also called h#6-55 H(3)-L(1)) VH: EVQLLESGGGLVQPGGSLRLSCAASGFTFSSVTMQWVRQAPGKGLEFVASVCSGSSTYYAPAVKGRVTISRDNSKNTVYLQMNSLRAEDTAVYYCAKIAGRARWSCTSAAYNIDAWGQGTLVTVSS VL: SYELTQPPSVSVSPGQTARITCSGGGNNYGWYQQKPGQAPVTVIYYNDNRPSGIPERFSGSNSGSTTTLTISGVQAEDEADYYCGSWDSNTDSGIFGGGTKLTVLG	–	–	–	–	–	–	–	–	–	26.7	26.7
anti-FSTL1 antibody clone #5-10 (chicken-mouse chimeric antibody) (antibody, mouse IgG1, V domains shown) VH: AVTLDESGGGLQTPGGGLSLVCKGSGFTLSSFNMFWVRQAPGKGLEWVAGVGKDGGTTYGAAVDGRATISRDSGQSTVRLQLNDLRAEDTGTYFCAKAAGGCSYSWCGAYVGDLDAWGHGTEVIVSS VL: ASTQPSSVSANPGETVKITCSGGGSYVGSYYYGWYQQKSPGSAPVTVIYNNNQRPSDIPSRFSGSKSGSTATLTITGVQAEDEAVYFCGGYDSSAGGIFGAGTTLTVLG	9.8	12.1	9.8	12.1	9.8	12.1	9.8	12.1	–	–	–
anti-FSTL1 antibody clone #13 (chicken-mouse chimeric antibody) (antibody, mouse IgG1, kappa, V domains shown) VH: AVTLDESGGGLQTPGGGLSLVCKASGFTFSSVTMQWVRQAPGKGLEWVASICSGSSTYYGPAVKGRATISRDNGQNTVRLQLNNLRAEDTATYYCAKIVGRGRWSCTSAAYNIDAWGHGTEVIVSS VL: ASTQPSSVSANPGETVKITCSGGGNNYGWYQQKSPGSAPVTVIYNNNNRPSNIPSRFSGSKSGSTNTLTITGVQAEDEAVYYCGSYDSSSDSGIFGAGTTLTVLG	8.7	0.2	8.7	0.2	8.7	0.2	8.7	0.2	binds	–	–
